Measurements from patent US20230295310A1 (ABCELLERA BIOLOGICS, published 2023).
Substitutions are numbered along the chain they refer to.

B1: mAb 102 (antibody, V domains shown)
VH: QVQLVESGGGVVQPGRSLRLSCAASGFSFRSYGMHWVRQAPGKGLEWVSVISYDGGNKYYADSVKGRFTISRDNSKNTLFLQMKSLRAEDTALYYCAKGGGTYWRGLFEYWGQGTLVTVSS
VL: DIQLTQSPSFLSASVGDRVTITCRASQGISSYLAWYQKKPGKAPKLLIYAASTLHSGVPSRFSGGGSGTAFTLTISSLQPEDFATYYCQQLNNYPFTFGPGTKVDIK
B2: mAb 106 (antibody, V domains shown)
VH: QVQLVESGGGVVQPGRSLRLSCAASGFTFRSYGMHWVRQAPGKGLEWVAIIWYNGNKKDYVDSVKGRFTISRDNSKNTLYLQMNSLRAEDTALYYCARGPGYNWFDPWGQGTLVTVSS
VL: DIQMTQSPPSLSASVGDRVTITCRASQRISSYLNWYQQKPGKAPKLLIYAASSLQSGVPSRFSGSGSGTDFTLTISSLQPEDFATYYCQQSDSFPLTFGGGTKVEII
B3: mAb 110 (antibody, V domains shown)
VH: B2 VH with T78M
VL: B2 VL with K39R, S91T
B4: mAb 85 (antibody, V domains shown)
VH: QVQLVQSGAEVKKPGASVKVSCKASGYTVTGYYMHWVRQAPGQGLEWMGWINPNSGGTNFAQNFQGRVTMTRDTSISTFYMDLNRLRSDDTAVYYCARGGAPVSYWFFDLWGRGTLVTVSS
VL: DIQMTQSPSSLSASVGDRVTITCRASQSISRYLNWYQQKPGKAPKVLIYNTSSLKSGVPSRFSGSGSGTDFTLTISSLQPEDFGTFYCQQSHSTPFTFGPGTKVDIK
B5: mAb 79 (antibody, V domains shown)
VH: B4 VH with T28I, Q43H, R87T
VL: B4 VL with S28N, S30N, R31S, Q37H, S53T, D70Y, G84A
B6: mAb 66 (antibody, V domains shown)
VH: B4 VH with N84S
VL: B4 VL with G84A, F86L
B7: mAb 67 (antibody, V domains shown)
VH: EVQLVESGGDLVQPGRSLRLSCAASGFTFDDCVIHWVRQAPGKGLEWVSGITWNSGRIGYADSVKGRFTISRDNAKNSLYLQMNSLRVEDTALYYCAKEGNYDFWSTYYRGYFDLWGRGTLVTVSS
VL: DIQMTQSPSSLSASVGDRVTITCRASQGIRNDLGWYQQKPGIAPKRLIYAASSLQGGVPLRFSGSGSGTEFTLTISSLQPEDFATYYCLQHNSYPYTFGQGTKLEIK
B8: mAb 71 (antibody, V domains shown)
VH: QVQLVQSGAEVRKPGASVKVSCKASGYTFTKYDVNWVRQAPGQGLEWMGWMNSNNGNIGYAQKFQGRVTMTRKTSISTAYMELSSLRSEDTAVYYCAREGHYDFWRGFYNFDYWGQGTLVTVSS
VL: B7 VL with G28D, R30K, I42K, G56S, L60S, S93F, Y96I, K103R
B9: mAb 74 (antibody, V domains shown)
VH: EVQLVESGGGLVQPGRSLRLSCAASGFTFADYVMHWVRQAPGKGLEWVSGINWNNARIGYVGSVKGRFTISRDNAKNSLYLQMTSLRVEDTALYHCVREGNFDFWSAYYRGFLDLWGRGTLVTVSS
VL: B7 VL with N31S, I42K, A50G, L60S
B10: mAb 73 (antibody, V domains shown)
VH: EVELVESGGGLVQPGRSLRLSCAASGFTFDDKVMHWVRQAPGKGLEWVSCINWNSGHIGYADSVKGRFTISRDNARTSLYLQMNSLRPEDTALYYCVREGNYDFWSGYYRGFFDLWGRGTLVTVSS
VL: B7 VL with I42K, L60S, N92T, Y96F
B11: mAb 86 (antibody, V domains shown)
VH: QVQLAESGGGVVQPGRSLRLSCEASGFTFSGYGMHWVRQAPGKGLDWVAIIYYDGKNKYYADSVKGRFTISRDNSKNTLYLQMNSLRAEDTAVYYCARGGGYNWFDPWGQGTLVTVSS
VL: DIQMTQSPSSLSASVGDRVTITCRPSQTISKYLNWYQQKPGKAPKLLIYAASSLQSGVPSRFSGSGSGTDFTLTISSLQPEDFATYYCQQSYITPITFGRGTRLEIK
B12: mAb 99 (antibody, V domains shown)
VH: B11 VH with V2G, A5V, E23A, S30R, Y32F, D46E, R98K
VL: DIQMTQSPSSLSASVGDRVTITCRASQSISTYLNWYQQKPGKAPKLLIYSASSLQSGVPSRFSGSGSGTDFTLTISNLQPEDFAIYYCQRSYSPPFTFGPGTKLDIR
B13: mAb 95 (antibody, V domains shown)
VH: B11 VH with V2A, Q3H, A5V, E23S, D46E, I50L, Y53F, K56R
VL: DIQMTQSPSSLSASVGDRVTITCRASQSINNYLSWYQQKPGKAPKLLIYLASNLQSGVPSRFSGSGSGTDFTLTISSLQPEDFATYYCQLSYRSPFTFGPGTKVDVK
B14: mAb 94 (antibody, V domains shown)
VH: B11 VH with Q3H, A5V, E23S, D46E, I50L, Y53F, K56R
VL: B13 VL with N30S, S34N, N53S, S76N, T85S, R93S, K107N
B15: mAb 96 (antibody, V domains shown)
VH: B11 VH with V2A, Q3H, A5V, E23S, D46E, A49S, I50L, Y53F, K56R
VL: B13 VL with S65N
B16: mAb 97 (antibody, V domains shown)
VH: B11 VH with V2G, A5V, E23A, S30R, D46E, S85N, A88V
VL: B12 VL with V15I, T31N
B17: mAb 101 (antibody, V domains shown)
VH: B11 VH with V2G, A5V, E23A, S30R, Y32F, D46E, T78M, R98K
VL: B12 VL
B18: mAb 93 (antibody, V domains shown)
VH: B11 VH with A5V, E23A, S30R, D46E, D54N, K56N
VL: B12 VL with T31N, K39E, S50T, D70A, N77S, Y92S, R107K
B19: mAb 100 (antibody, V domains shown)
VH: B11 VH with A5V, E23V, S30R, D46E, A88V, V93L
VL: B12 VL with S50T, D70V, N77S, K103R, R107K
B20: mAb 98 (antibody, V domains shown)
VH: B11 VH with Q3H, A5V, G10D, E23S, D46E, I50L, Y53F, K56R
VL: B13 VL with S34N, N53S, F83L, R93S
B21: mAb 111 (antibody, V domains shown)
VH: EVQLVESGGVLVKTGGSLRLSCVASGFSFKKAWMNWVRQAPGKGLEWVGRIKRNSDGGAADYAAPVKDRFTLSRDDSKNTLYLQMNSLKTEDTAVYYCTTLDSSSWYVGYYYMDVWGKGTTVTVSS
VL: DIHMTQSPSSVSASLGDRVTFTCRASQNINNWLAWYQQKPGKAPKLLIYTASSLQSGVPSRFSGSGSGTDFTLTISSLQPDDFATYYCQQAHSLPITFGQGTRLGIK
B22: mAb 72 (antibody, V domains shown)
VH: EVQLVDSGGGLVQPGGSLRLSCAASGFTFSSYWMSWVRQAPGKGLEWVANIKQDGSEKYYVDSVKGRFTISRDNVKNSLSLEMNSLRAEDTALYYCARDESSSWYWYFDLWGRGTLVTVSS
VL: DIQMTQSPSTLSASVGDRVTITCRASQSISKWLAWYQQKPGKAPKLLIYKASSLENGVPSRFSGSGSGTEFTLTISSLQPDDFATYYCQQYSSYSRTFGQGTKVEIK

These binders were tested against T1, human CD3 expressed on cells (human, UniProt P07766 23-207; P04234 22-171; P09693 23-182) (assay: flow cytometry, 25 nM).
T1 construct: whole, on cells; CD3 complex on Jurkat cells and on human primary T cells
T1 sequence (P07766 23-207, chain 1 of 3): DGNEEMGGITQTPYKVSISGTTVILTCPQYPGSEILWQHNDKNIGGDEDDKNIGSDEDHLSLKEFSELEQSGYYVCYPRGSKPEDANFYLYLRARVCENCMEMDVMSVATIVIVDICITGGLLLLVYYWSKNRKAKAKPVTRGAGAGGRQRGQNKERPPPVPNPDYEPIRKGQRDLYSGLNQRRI
T1 sequence (P04234 22-171, chain 2 of 3): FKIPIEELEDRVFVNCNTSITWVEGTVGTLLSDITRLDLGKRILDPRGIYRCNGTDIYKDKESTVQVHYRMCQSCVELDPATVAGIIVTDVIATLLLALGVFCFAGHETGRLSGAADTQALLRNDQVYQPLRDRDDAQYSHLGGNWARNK
T1 sequence (P09693 23-182, chain 3 of 3): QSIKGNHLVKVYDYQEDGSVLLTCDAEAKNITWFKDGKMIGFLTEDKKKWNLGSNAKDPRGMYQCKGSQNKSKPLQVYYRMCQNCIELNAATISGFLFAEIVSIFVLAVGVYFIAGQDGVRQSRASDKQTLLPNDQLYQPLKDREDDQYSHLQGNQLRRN
Experimental: (§1) Purified antibodies were confirmed to bind CD3 expressed on cells using the CytoFLEX S or LX flow cytometers (Beckman Coulter). Antibodies were diluted to 25 nM in FACS buffer (PBS+2% FBS) and were incubated with CD3-expressing cells for 30 minutes at 4° C. […] The median fluorescence intensity of the binding signal for each antibody was normalized to the isotype control to obtain a fold over isotype value. An antibody with a fold over isotype (FOI) of ≥10 was considered to be positive for binding.

Binder	Human primary T Cell Binding (FOI)	Jurkat Cell Binding (FOI)
B1	98.9 FOI	101 FOI
B2	210 FOI	186 FOI
B3	214 FOI	197 FOI
B4	195 FOI	181 FOI
B5	199 FOI	171 FOI
B6	192 FOI	172 FOI
B7	72.4 FOI	70.2 FOI
B8	108 FOI	100 FOI
B9	146 FOI	151 FOI
B10	74.5 FOI	109 FOI
B11	189 FOI	175 FOI
B12	218 FOI	198 FOI
B13	206 FOI	177 FOI
B14	174 FOI	170 FOI
B15	189 FOI	174 FOI
B16	211 FOI	192 FOI
B17	233 FOI	216 FOI
B18	198 FOI	175 FOI
B19	229 FOI	241 FOI
B20	174 FOI	181 FOI
B21	168 FOI	160 FOI
B22	91.4 FOI	98.7 FOI

These binders were tested against T2, cynomolgus monkey CD3 expressed on primary T cells (cynomolgus monkey, UniProt Q95LI5 22-198; Q95LI8 22-171; Q95LI7 23-181) (assay: flow cytometry, 25 nM, cyno primary T cells).
T2 construct: whole, on cells; CD3 complex on purified cynomolgus monkey T cells; also called cyno CD3
T2 sequence (Q95LI5 22-198, chain 1 of 3): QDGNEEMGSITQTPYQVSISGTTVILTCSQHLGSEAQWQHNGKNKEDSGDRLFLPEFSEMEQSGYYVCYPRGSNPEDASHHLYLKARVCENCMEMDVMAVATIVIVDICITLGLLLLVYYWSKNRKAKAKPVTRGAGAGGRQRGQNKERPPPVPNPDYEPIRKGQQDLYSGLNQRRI
T2 sequence (Q95LI8 22-171, chain 2 of 3): as the sequence (P04234 22-171, chain 2 of 3) above, with I5V, N15K, I20V, S32T, D33N, I34N, T64A, S74N, V83L, H141R counted along it
T2 sequence (Q95LI7 23-181, chain 3 of 3): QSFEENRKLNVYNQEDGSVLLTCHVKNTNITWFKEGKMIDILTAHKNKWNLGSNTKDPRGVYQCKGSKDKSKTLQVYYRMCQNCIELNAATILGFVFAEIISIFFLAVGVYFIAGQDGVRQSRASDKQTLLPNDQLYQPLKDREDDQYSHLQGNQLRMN
Experimental: as §1

Binder	binding result
B1	no binding (tested: FOI >=10 = positive)
B2	no binding (tested: FOI >=10 = positive)
B3	no binding (tested: FOI >=10 = positive)
B4	no binding (tested: FOI >=10 = positive)
B5	no binding (tested: FOI >=10 = positive)
B6	no binding (tested: FOI >=10 = positive)
B7	no binding (tested: FOI >=10 = positive)
B8	no binding (tested: FOI >=10 = positive)
B9	no binding (tested: FOI >=10 = positive)
B10	no binding (tested: FOI >=10 = positive)
B11	no binding (tested: FOI >=10 = positive)
B12	no binding (tested: FOI >=10 = positive)
B13	no binding (tested: FOI >=10 = positive)
B14	no binding (tested: FOI >=10 = positive)
B15	no binding (tested: FOI >=10 = positive)
B16	no binding (tested: FOI >=10 = positive)
B17	no binding (tested: FOI >=10 = positive)
B18	no binding (tested: FOI >=10 = positive)
B19	no binding (tested: FOI >=10 = positive)
B20	no binding (tested: FOI >=10 = positive)
B21	no binding (tested: FOI >=10 = positive)
B22	no binding (tested: FOI >=10 = positive)
